The text below walks through data of patent publication US20150376265A1 (Genentech, published 2015).

Changes are numbered by the printed parent chain.

In test [1] the target is T1, Complex I with gH P171H, on virions of HB1 - mutant virus 1 (HCMV, UniProt P12824 24-743; P16832 31-278; P16837 28-171; F5HCP3 26-214; F5HET4 19-129).
T1 chain 1: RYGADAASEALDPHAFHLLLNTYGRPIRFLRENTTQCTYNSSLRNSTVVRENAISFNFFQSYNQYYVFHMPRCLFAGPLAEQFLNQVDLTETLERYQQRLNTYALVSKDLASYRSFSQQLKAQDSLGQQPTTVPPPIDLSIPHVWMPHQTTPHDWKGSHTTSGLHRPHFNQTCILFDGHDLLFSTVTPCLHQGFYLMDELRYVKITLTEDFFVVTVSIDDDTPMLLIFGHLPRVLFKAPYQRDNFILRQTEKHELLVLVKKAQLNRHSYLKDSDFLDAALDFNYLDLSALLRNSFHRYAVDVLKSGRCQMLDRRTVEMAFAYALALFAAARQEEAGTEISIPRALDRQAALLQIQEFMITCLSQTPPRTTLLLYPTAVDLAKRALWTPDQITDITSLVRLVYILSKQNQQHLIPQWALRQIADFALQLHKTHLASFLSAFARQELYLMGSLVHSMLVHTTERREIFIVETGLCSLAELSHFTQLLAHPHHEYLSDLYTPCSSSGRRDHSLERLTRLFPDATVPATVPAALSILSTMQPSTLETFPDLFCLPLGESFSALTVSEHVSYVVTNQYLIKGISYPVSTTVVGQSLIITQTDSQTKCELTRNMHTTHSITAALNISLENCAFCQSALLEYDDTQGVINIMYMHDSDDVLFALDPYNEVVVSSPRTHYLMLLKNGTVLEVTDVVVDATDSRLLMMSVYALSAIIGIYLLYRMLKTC
T1 chain 2: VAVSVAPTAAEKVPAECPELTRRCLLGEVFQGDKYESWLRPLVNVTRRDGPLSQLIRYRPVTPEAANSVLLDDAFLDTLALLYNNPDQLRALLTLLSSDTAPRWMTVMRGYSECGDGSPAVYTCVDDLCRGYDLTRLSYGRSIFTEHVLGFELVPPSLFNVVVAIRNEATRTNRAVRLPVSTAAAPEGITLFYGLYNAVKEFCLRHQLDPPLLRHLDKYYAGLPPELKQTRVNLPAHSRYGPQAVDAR
T1 chain 3: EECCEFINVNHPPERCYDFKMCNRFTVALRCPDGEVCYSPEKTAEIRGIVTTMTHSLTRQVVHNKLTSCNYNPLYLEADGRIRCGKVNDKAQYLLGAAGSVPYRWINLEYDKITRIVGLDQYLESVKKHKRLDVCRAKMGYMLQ
T1 chain 4: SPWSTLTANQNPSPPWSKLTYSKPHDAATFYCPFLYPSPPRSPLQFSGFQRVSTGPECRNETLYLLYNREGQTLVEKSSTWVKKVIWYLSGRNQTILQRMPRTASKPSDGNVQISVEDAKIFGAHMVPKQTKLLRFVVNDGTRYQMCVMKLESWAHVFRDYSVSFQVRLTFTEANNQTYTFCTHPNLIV
T1 chain 5: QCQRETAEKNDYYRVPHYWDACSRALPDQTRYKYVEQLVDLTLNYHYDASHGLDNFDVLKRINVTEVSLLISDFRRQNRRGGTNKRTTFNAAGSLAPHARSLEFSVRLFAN
The experiment in a line: cell-based or functional assay.

The target of test [2] is T2, Complex I with gH W168C, on virions of HB1 - mutant viruses 2 and 5 (HCMV, UniProt P12824 24-743; P16832 31-278; P16837 28-171; F5HCP3 26-214; F5HET4 19-129).
T2 chain 1: T1 chain 1 with W145C, H148P
T2 chain 2: T1 chain 2
T2 chain 3: T1 chain 3
T2 chain 4: T1 chain 4
T2 chain 5: T1 chain 5
The test can be described thus: cell-based or functional assay.

B1: hu8G8 (lambda4 8G8 graft and hu8G8.VH1) (antibody, V domains shown)
VH: EVQLVQSGAEVKKPGASVKVSCKASGYTFTNYGMNWVRQAPGQGLEWIGWINTYTGEPTYADDFKGRVTITRDTSTSTAYLELSSLRSEDTAVYYCARSWYYVSNYWYFDVWGQGTLVTVSS
VL: SVLTQSPSASASLGASVKLTCTLSSQHSTYTIEWYQQQPGKGPRYLMKLKKDGSHSTGDGIPDRFSGSSSGADRYLTISNLQSEDEADYYCGVGDTIKEQFVYVFGGGTKLTVLG
notes: also called hu8G8 with VH1; Humanized 8G8 with VH1
Consider B1, for which, in test [1], the “hu8G8 EC50, neutralisation of HB1 - mutant virus 1, Data Set 1” value worked out at 10 ng/mL and the “hu8G8 EC50, neutralisation of HB1 - mutant virus 1, Data Set 2” value amounted to 0.6 ng/mL. Further, in test [2], the “hu8G8 EC50, neutralisation of HB1 - mutant virus 2, Data Set 1” value is 8 ng/mL; the “hu8G8 EC50, neutralisation of HB1 - mutant virus 2, Data Set 2” value was 6 ng/mL; the “hu8G8 EC50, neutralisation of HB1 - mutant virus 5, Data Set 2” value stood at 1 ng/mL.
